Test results reported in the supplement of paper PMC10065799, “High-throughput profiling of sequence recognition by tyrosine kinases and SH2 domains using bacterial peptide display” (eLife, 2023).

What was measured:
[1] = biological target: Fyn (UniProt P06241); assay: phosphorylation enrichment, bacterial display (enrichment ratio); higher = better substrate or ligand; peptides without Tyr show the background
[2] = biological target: EPHB2 (UniProt P29323); assay: as above
[3] = biological target: FGFR3 (UniProt P22607); assay: as above
FGFR3, sequence (P22607 whole entry, looked up): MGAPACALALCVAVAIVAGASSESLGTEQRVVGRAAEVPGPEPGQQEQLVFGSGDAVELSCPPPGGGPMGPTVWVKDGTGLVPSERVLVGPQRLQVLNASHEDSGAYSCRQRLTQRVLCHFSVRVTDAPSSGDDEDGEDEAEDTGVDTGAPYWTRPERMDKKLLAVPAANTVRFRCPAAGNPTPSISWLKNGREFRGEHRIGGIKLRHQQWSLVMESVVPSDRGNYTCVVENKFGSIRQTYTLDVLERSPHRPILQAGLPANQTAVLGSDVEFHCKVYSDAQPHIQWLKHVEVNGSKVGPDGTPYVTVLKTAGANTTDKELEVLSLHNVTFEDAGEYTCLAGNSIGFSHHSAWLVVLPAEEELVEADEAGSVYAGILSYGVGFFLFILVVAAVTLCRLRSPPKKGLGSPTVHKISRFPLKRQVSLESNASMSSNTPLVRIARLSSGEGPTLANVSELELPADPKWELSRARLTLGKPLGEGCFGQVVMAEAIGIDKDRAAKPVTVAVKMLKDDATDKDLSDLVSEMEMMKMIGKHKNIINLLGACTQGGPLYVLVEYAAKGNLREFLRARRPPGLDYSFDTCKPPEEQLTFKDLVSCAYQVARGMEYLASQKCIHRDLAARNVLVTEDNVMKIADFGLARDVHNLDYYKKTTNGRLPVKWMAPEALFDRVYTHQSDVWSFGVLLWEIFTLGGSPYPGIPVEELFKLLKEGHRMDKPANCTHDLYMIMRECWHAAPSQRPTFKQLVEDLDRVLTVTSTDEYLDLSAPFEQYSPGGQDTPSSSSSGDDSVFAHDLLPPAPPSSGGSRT

[4] = biological target: Jak2 (UniProt O60674); assay: as above
Jak2, sequence (O60674 whole entry, looked up): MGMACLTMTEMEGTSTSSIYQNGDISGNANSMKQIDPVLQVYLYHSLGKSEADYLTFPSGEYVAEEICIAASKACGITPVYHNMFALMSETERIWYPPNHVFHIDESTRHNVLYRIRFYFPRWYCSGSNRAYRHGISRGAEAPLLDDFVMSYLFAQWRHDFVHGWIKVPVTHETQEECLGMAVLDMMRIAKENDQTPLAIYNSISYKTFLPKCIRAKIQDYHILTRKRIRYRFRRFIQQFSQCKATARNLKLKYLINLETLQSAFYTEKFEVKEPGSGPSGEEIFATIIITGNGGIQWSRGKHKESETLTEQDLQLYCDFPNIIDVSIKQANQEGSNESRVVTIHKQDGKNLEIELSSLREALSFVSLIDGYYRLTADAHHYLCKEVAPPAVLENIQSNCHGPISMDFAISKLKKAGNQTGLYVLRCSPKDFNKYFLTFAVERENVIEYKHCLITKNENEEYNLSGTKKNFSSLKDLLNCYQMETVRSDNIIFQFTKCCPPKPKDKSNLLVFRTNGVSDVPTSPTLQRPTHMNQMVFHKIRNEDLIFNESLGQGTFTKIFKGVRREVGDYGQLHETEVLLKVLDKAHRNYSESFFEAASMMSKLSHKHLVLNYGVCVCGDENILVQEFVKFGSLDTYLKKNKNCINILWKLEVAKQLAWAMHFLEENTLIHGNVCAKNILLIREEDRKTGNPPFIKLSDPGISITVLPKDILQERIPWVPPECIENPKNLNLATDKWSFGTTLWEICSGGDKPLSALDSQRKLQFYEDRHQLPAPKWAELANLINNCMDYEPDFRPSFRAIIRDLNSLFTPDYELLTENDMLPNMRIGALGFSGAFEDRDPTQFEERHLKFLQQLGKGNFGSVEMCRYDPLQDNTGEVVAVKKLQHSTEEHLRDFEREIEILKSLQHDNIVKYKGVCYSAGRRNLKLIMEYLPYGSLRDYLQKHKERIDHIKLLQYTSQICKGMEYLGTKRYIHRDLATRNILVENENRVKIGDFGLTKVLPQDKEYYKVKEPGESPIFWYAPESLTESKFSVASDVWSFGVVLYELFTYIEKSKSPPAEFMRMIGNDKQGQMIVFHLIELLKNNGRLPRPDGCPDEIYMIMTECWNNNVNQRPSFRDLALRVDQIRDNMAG

[5] = test system: Fer (mouse); assay: as above
[6] = test system: AncSZ; assay: as above
[7] = test system: c-Src; assay: as above
[8] = biological target: Hck (UniProt P08631); assay: as above
Hck, sequence (P08631 whole entry, looked up): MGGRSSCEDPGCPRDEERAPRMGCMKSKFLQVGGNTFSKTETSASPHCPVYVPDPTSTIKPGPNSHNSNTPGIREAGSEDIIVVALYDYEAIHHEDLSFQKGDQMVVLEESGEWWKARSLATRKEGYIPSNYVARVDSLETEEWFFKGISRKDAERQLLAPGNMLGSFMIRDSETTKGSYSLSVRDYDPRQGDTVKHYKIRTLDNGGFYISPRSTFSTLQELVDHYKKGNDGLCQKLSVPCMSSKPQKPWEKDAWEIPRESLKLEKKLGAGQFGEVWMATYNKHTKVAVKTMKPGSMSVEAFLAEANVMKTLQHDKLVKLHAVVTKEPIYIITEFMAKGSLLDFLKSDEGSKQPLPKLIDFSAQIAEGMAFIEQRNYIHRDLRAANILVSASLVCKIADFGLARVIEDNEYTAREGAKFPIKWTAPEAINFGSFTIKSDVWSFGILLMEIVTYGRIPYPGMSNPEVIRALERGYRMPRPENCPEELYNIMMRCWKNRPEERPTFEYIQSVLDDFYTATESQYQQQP

[9] = biological target: FGFR1 (UniProt P11362); assay: as above
[10] = biological target: Fes (UniProt P07332); assay: as above
[11] = test system: c-Abl (mouse); assay: as above
[12] = biological target: MERTK (UniProt Q12866); assay: as above
[13] = biological target: EPHB1 (UniProt P54762); assay: as above
EPHB1, sequence (P54762 whole entry, looked up): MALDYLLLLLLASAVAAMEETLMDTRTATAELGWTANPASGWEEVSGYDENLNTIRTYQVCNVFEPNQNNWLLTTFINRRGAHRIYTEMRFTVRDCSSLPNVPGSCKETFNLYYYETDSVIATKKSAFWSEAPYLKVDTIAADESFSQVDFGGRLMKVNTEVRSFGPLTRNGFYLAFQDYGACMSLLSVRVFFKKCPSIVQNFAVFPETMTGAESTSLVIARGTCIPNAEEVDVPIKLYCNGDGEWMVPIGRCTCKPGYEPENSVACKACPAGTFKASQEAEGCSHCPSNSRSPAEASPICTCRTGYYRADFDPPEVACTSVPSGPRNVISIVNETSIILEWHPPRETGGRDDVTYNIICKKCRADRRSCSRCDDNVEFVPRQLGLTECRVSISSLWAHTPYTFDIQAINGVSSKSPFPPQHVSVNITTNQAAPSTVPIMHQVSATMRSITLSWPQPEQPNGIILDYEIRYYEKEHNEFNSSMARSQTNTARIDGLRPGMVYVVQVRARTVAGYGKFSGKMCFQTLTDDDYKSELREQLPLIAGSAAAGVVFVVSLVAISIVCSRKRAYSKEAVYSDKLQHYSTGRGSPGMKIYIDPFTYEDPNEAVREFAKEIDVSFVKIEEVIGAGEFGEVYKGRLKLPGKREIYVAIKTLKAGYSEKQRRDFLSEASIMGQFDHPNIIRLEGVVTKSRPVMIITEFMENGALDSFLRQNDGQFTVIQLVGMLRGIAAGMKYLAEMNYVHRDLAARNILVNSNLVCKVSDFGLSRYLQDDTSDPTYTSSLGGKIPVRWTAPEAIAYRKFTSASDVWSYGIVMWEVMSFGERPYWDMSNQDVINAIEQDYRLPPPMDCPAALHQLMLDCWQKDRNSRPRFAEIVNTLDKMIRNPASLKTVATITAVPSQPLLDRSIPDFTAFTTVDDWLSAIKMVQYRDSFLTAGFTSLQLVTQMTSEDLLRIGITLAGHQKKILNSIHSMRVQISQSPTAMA

[14] = biological target: Grb2 SH2 (UniProt P62993); assay: SH2 binding enrichment of the phosphorylated peptide, bacterial display (enrichment ratio); higher = better substrate or ligand; peptides without Tyr show the background
[15] = biological target: c-Src SH2; assay: as above
[16] = biological target: SHP2-C SH2; assay: as above
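Wherever SH2 binding enrichment of the phosphorylated peptide, bacterial display is given: peptide library displayed on the E. coli surface as eCPX fusions, selected cells deep-sequenced, score is each peptide's frequency after selection divided by its frequency in the input.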
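Wherever phosphorylation enrichment, bacterial display is given: 11-residue human phosphosite peptides and single-mutation variants displayed on the E. coli surface, counted by deep sequencing, each peptide's frequency after selection divided by its frequency in the unselected input library; frequency after pTyr selection over input frequency; kinase dosed for 20-30% of maximal phosphorylation in three min.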

Fyn, sequence (P06241 whole entry, looked up): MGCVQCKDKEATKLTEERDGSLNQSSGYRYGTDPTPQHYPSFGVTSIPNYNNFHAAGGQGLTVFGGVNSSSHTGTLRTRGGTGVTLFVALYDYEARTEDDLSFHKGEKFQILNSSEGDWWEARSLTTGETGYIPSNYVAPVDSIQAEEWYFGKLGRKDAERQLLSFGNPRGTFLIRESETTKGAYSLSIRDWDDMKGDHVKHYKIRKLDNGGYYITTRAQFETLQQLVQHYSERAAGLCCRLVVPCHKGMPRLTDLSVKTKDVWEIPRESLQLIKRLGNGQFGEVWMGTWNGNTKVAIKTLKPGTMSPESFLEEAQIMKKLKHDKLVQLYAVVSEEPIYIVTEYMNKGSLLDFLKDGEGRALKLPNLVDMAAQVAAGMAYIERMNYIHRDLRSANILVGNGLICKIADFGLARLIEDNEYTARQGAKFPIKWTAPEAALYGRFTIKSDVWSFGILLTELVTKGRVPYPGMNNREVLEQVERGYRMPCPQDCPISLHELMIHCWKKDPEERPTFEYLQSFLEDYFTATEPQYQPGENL
EPHB2, sequence (P29323 whole entry, looked up): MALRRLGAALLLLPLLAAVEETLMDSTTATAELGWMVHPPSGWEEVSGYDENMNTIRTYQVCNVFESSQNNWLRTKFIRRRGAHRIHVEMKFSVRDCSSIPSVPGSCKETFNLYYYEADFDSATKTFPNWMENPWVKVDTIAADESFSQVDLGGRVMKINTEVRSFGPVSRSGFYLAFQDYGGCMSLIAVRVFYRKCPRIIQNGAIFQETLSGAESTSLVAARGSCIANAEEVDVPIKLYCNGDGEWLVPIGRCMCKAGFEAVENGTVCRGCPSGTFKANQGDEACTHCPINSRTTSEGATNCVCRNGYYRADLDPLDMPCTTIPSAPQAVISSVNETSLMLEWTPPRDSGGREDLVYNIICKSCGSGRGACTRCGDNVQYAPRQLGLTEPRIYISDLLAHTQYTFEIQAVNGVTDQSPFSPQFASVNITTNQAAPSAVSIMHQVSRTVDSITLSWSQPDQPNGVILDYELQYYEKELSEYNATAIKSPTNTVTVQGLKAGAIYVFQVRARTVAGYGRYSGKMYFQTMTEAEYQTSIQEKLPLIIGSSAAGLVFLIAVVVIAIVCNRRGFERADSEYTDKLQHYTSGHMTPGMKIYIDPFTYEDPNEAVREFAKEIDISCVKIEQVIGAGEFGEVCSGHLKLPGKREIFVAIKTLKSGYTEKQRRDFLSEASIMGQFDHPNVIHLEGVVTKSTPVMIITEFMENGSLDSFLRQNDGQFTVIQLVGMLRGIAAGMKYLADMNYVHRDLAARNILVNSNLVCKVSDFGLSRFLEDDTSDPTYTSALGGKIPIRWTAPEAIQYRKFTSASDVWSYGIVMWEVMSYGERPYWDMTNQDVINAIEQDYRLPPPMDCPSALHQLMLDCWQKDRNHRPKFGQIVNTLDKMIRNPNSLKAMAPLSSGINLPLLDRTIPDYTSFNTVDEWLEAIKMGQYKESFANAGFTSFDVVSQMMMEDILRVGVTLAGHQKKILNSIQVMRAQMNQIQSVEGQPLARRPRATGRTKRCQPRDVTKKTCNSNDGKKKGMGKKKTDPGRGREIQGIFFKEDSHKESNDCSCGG

Row | Sequence | SH2 binding enrichment [14] | SH2 binding enrichment [15] | SH2 binding enrichment [16] | phosphorylation enrichment [1] | phosphorylation enrichment [2] | phosphorylation enrichment [3] | phosphorylation enrichment [4] | phosphorylation enrichment [5] | phosphorylation enrichment [6] | phosphorylation enrichment [7] | phosphorylation enrichment [8] | phosphorylation enrichment [9] | phosphorylation enrichment [10] | phosphorylation enrichment [11] | phosphorylation enrichment [12] | phosphorylation enrichment [13]
1 | LTNDRYLATLT [IL6ST_Y396] | 1.04 | 0.541 | 0.722 | 0.746 | 0.709 | 0.586 | 0.97 | 0.568 | 0.761 | 0.533 | 0.463 | 0.676 | 1.07 | 1.58 | 0.597 | 0.625
2 | LTTEAYEWEPC [ELMOD3_Y61_R66C] | 1.02 | 1.37 | 0.959 | 1.58 | 2.44 | 3.7 | 6.69 | 2.88 | 5.1 | 5.66 | 1.88 | 2.04 | 6.22 | 4.16 | 1.57 | 3.5
3 | LVRAFYCERRR [CARD11_Y970] | 0.383 | 0.243 | 0.449 | 0.844 | 1.71 | 0.585 | 0.705 | 0.624 | 0.684 | 0.988 | 1.14 | 0.766 | 0.713 | 0.597 | 0.902 | 0.62
4 | LVRPPYSFLAL [FOXI1_Y126_S129L_YF] | 0.713 | 0.547 | 0.842 | 0.525 | 0.523 | 0.866 | 0.71 | 1.22 | 0.683 | 0.525 | 0.727 | 1.07 | 0.787 | 0.526 | 1.05 | 0.584
5 | MFKPMYALFRT [HUWE1_Y4078_N4075K] | 1.35 | 1.52 | 1.86 | 0.779 | 0.621 | 0.698 | 0.704 | 0.815 | 0.921 | 1.75 | 0.872 | 0.606 | 0.982 | 1.85 | 2.87 | 0.963
6 | MGHVNYGAFIN [GLB1_Y485_R482H_YF] | 0.882 | 0.44 | 0.804 | 0.672 | 0.615 | 0.505 | 0.72 | 0.406 | 0.611 | 0.706 | 0.609 | 0.449 | 0.756 | 0.565 | 0.391 | 0.565
7 | MICSAYALGGL [CPS1_Y590_R587C] | 0.764 | 0.552 | 0.506 | 0.659 | 0.601 | 0.844 | 0.983 | 0.551 | 0.961 | 0.779 | 0.72 | 0.635 | 1.05 | 0.811 | 0.571 | 0.623
8 | MIRSTYALGGL [CPS1_Y590_A589T] | 0.699 | 0.439 | 0.626 | 0.466 | 0.521 | 0.486 | 0.73 | 0.489 | 0.63 | 0.546 | 0.487 | 0.774 | 0.693 | 0.498 | 0.488 | 0.4
9 | MLEVPYVDRNS [F10_Y384] | 0.724 | 0.457 | 0.708 | 0.382 | 0.494 | 0.643 | 0.789 | 0.434 | 0.847 | 0.395 | 0.453 | 0.411 | 0.89 | 0.611 | 0.317 | 0.499
10 | MMVGAYSSLEG [ECPAS_Y470_T472S] | 0.82 | 7.6 | 0.77 | 0.533 | 0.434 | 0.515 | 0.563 | 0.528 | 0.631 | 0.671 | 0.832 | 0.514 | 0.754 | 0.785 | 1.97 | 0.469
11 | MSRLKYPVSQQ [BTK_Y375_I370M] | 1.03 | 0.608 | 0.78 | 0.473 | 0.741 | 0.621 | 0.54 | 0.375 | 0.573 | 0.491 | 0.435 | 0.434 | 0.706 | 0.573 | 0.478 | 0.413
12 | MSRNLYSGDYY [DDR2_Y736] | 0.878 | 0.845 | 0.612 | 5.12 | 14.6 | 5.43 | 1.64 | 2.13 | 2.08 | 5.09 | 5.53 | 7.13 | 0.788 | 0.821 | 9.32 | 11.3
13 | MTFQNYRQALF [FAM20C_Y279_G280R] | 1.13 | 0.51 | 0.792 | 0.576 | 0.572 | 0.57 | 0.867 | 0.451 | 0.909 | 0.462 | 0.469 | 0.444 | 1.02 | 0.657 | 0.494 | 0.477
14 | MTRDIYRASFF [ALK_Y1278_A1274T_YF] | 0.811 | 0.529 | 0.563 | 0.587 | 0.462 | 0.677 | 0.621 | 0.386 | 0.657 | 0.592 | 0.89 | 0.572 | 0.73 | 4.15 | 0.464 | 0.519
15 | NALVQYQEMEK [BBS4_Y395_A393V] | 1.04 | 4.65 | 0.745 | 0.53 | 0.503 | 0.721 | 1.02 | 0.509 | 0.978 | 0.507 | 0.569 | 0.562 | 1.02 | 0.62 | 0.459 | 0.507
16 | NDLMEYPKQHG [ASS1_Y163_A164P] | 0.887 | 0.538 | 0.571 | 0.503 | 0.48 | 0.48 | 0.765 | 0.377 | 0.738 | 0.447 | 0.502 | 0.506 | 0.855 | 0.697 | 0.45 | 0.46
17 | NDQANYLLNTD [ADA_Y290_S291L] | 0.765 | 0.527 | 0.893 | 0.491 | 0.56 | 0.601 | 0.934 | 0.379 | 0.987 | 0.468 | 0.469 | 0.432 | 0.968 | 0.681 | 0.395 | 0.558
18 | NELTYYCCKKD [CD59_Y87] | 0.78 | 0.438 | 0.766 | 2.92 | 1.17 | 3.92 | 2.83 | 3.67 | 1.9 | 3.91 | 3.04 | 7.15 | 1.3 | 1.48 | 4.45 | 0.923

More lines, main results first:

Row | SH2 binding enrichment [14] | SH2 binding enrichment [15] | SH2 binding enrichment [16] | Sequence | phosphorylation enrichment [1] | phosphorylation enrichment [2] | phosphorylation enrichment [3] | phosphorylation enrichment [4] | phosphorylation enrichment [5] | phosphorylation enrichment [6] | phosphorylation enrichment [7] | phosphorylation enrichment [8] | phosphorylation enrichment [9] | phosphorylation enrichment [10] | phosphorylation enrichment [11] | phosphorylation enrichment [12] | phosphorylation enrichment [13]
19 | 0.847 | 4.06 | 5.82 | LTGIAYSLPHW [SLC22A14_Y291] | 0.921 | 0.94 | 0.956 | 0.997 | 0.877 | 1.61 | 0.764 | 1.08 | 0.658 | 1.68 | 1.41 | 3.24 | 0.969
20 | 0.88 | 0.624 | 0.766 | MDFRSYPHEFG [RBM10_Y44_R46H_YF] | 0.397 | 0.402 | 0.526 | 0.536 | 0.354 | 0.64 | 0.317 | 0.335 | 0.464 | 0.69 | 0.465 | 0.366 | 0.434
21 | 0.647 | 0.494 | 0.724 | MDYRSYPHEYG [RBM10_Y44_R46H] | 0.419 | 0.551 | 0.632 | 0.682 | 0.404 | 0.832 | 0.518 | 0.484 | 0.602 | 0.854 | 0.561 | 0.486 | 0.542
22 | 0.703 | 0.484 | 0.607 | MEYAKYGSLRG [RET_Y809_V804M] | 1.14 | 0.465 | 0.458 | 0.536 | 0.431 | 0.622 | 1.9 | 1.29 | 0.461 | 0.605 | 0.474 | 0.436 | 0.569
23 | 0.929 | 0.67 | 0.558 | MFNPCYGLFEF [NEDD4L_Y680_Y679C_YF] | 4.92 | 0.65 | 0.766 | 1.07 | 4.76 | 1.33 | 4.79 | 2.27 | 0.578 | 1.27 | 0.917 | 2.85 | 0.633
24 | 1.12 | 0.683 | 0.834 | MHDKEYFSVHN [MET_Y1234_Y1230H_YF] | 0.53 | 0.619 | 0.969 | 0.921 | 0.497 | 0.954 | 0.487 | 0.494 | 1.4 | 0.741 | 0.737 | 0.449 | 0.554
25 | 0.706 | 0.479 | 0.36 | MKGDFYRFLAE [YWHAG_Y131_YF] | 0.429 | 0.494 | 0.49 | 0.845 | 0.426 | 0.803 | 0.448 | 0.349 | 0.448 | 0.798 | 0.596 | 0.734 | 0.497
26 | 0.922 | 0.676 | 1.12 | MKGEYYRYLAE [YWHAG_Y131_D129E] | 0.606 | 0.779 | 2.92 | 1.42 | 0.429 | 1.12 | 0.795 | 0.732 | 4.14 | 1.07 | 0.82 | 0.471 | 0.685
27 | 0.851 | 1.28 | 0.698 | MKVPVYETPAG [PGM5_Y358] | 6.27 | 18.2 | 0.649 | 0.903 | 11.6 | 1.57 | 5.2 | 7.86 | 0.492 | 1.08 | 18.2 | 5.35 | 11.7
28 | 3.88 | 2.14 | 0.51 | MNKNAYHNVTA [ST3GAL6_Y306] | 0.519 | 0.341 | 0.451 | 0.443 | 0.379 | 0.524 | 0.331 | 0.46 | 0.499 | 0.52 | 0.465 | 0.404 | 0.686
29 | 0.758 | 0.726 | 3.33 | MPAVTYTLAMR [MEGF10_Y895_P897L] | 0.53 | 0.588 | 0.73 | 0.845 | 0.488 | 1.08 | 0.503 | 0.514 | 0.453 | 1.03 | 0.724 | 0.437 | 0.516
30 | 0.753 | 0.79 | 0.605 | MSYDRYMAICH [OR2A5_Y123] | 0.511 | 0.704 | 0.672 | 0.895 | 0.498 | 0.909 | 0.485 | 0.646 | 0.509 | 1.03 | 0.695 | 0.484 | 0.846
31 | 0.873 | 0.622 | 0.566 | MYDKEYYSVHN [MET_Y1234] | 0.64 | 1.13 | 4.25 | 2.53 | 0.727 | 2.1 | 1.65 | 0.903 | 7.14 | 1.1 | 1.05 | 0.813 | 0.965
32 | 0.748 | 0.433 | 0.693 | NESVDYRATFP [MET_Y1003] | 0.472 | 0.463 | 0.489 | 0.749 | 0.454 | 0.681 | 0.418 | 0.484 | 0.427 | 0.802 | 0.591 | 0.422 | 0.421
33 | 0.954 | 0.885 | 0.953 | NFATLHLKIYH [PDE6B_Y219_Y219H] | 0.476 | 0.536 | 0.755 | 1.12 | 0.498 | 1.16 | 0.568 | 0.47 | 0.423 | 1.41 | 1.01 | 0.46 | 0.675
